According to patent publication US20190010242A1 (INHIBRX, published 2019):

B1: Dual-affinity Re-targeting Antibody (DART)-monomeric Fc format targeting B7H3 and CD3 (bispecific antibody)
chain 1: DIQLTQSPSFLSASVGDRVTITCKASQNVDTNVAWYQQKPGKAPKALIYSASYRYSGVPSRFSGSGSGTDFTLTISSLQPEDFATYYCQQYNNYPFTFGQGTKLEIKGGGSGGGGEVQLVESGGGLVQPGGSLRLSCAASGFTFSTYAMNWVRQAPGKGLEWVGRIRSKYNNYATYYADSVKDRFTISRDDSKNSLYLQMNSLKTEDTAVYYCVRHGNFGNSYVSWFAYWGQGTLVTVSSGGCGGGEVAALEKEVAALEKEVAALEKEVAALEKGGGDKTHTCPPCPAPEAAGGPSVFLFPPKPKDTLMISRTPEVTCVVVDVSHEDPEVKFNWYVDGVEVHNAKTKPREEQYNSTYRVVSVLTVLHQDWLNGKEYKCKVSNKALPAPIEKTISKAKGQPREPQVYTLPPSREEMTKNQVSLWCLVKGFYPSDIAVEWESNGQPENNYKTTPPVLDSDGSFFLYSKLTVDKSRWQQGNVFSCSVMHEALHNHYTQKSLSLSPGK
chain 2: QAVVTQEPSLTVSPGGTVTLTCRSSTGAVTTSNYANWVQQKPGQAPRGLIGGTNKRAPWTPARFSGSLLGGKAALTITGAQAEDEADYYCALWYSNLWVFGGGTKLTVLGGGGSGGGGEVQLVESGGGLVQPGGSLRLSCAASGFTFSSFGMHWVRQAPGKGLEWVAYISSDSSAIYYADTVKGRFTISRDNAKNSLYLQMNSLRDEDTAVYYCGRGRENIYYGSRLDYWGQGTTVTVSSGGCGGGKVAALKEKVAALKEKVAALKEKVAALKE
chain 3: not shown
notes: also called DART-Fc B7H3×CD3; DART-Fc
B2: cx3309 (CD20-targeting constrained CD3 engaging construct, GA101 scFvs) (bispecific antibody)
chain 1: not shown
chain 2: DKTHTCPPCPAPELLGGPSVFLFPPKPKDTLMISRTPEVTCVVVDVSHEDPEVKFNWYVDGVEVHNAKTKPREEQYNSTYRVVSVLTVLHQDWLNGKEYKCKVSNKALPAPIEKTISKAKGQPREPQVYTLPPCRDELTKNQVSLWCLVKGFYPSDIAVEWESNGQPENNYKTTPPVLDSDGSFFLYSKLTVDKSRWQQGNVFSCSVMHEALHNHYTQKSLSLSPTGGSGGGGIEPDIGGSGGSEVQLVESGGGLVQPGGSLRLSCAASGFTFNTYAMNWVRQAPGKCLEWVARIRSKYNNYATYYADSVKGRFTISRDDAKNTLYLQMSSLRAEDTAVYYCVRHGNFGNSYVSWFAYWGQGTLVTVKP
scFv: QVQLVQSGAEVKKPGSSVKVSCKASGYAFSYSWINWVRQAPGQGLEWMGRIFPGDGDTDYNGKFKGRVTITADKSTSTAYMELSSLRSEDTAVYYCARNVFDGYWLVYWGQGTLVTVSGSGGGGSGGGGTGGGGSDIVMTQTPLSLPVTPGEPASISCRSSKSLLHSNGITYLYWYLQKPGQSPQLLIYQMSNLVSGVPDRFSGSGSGTDFTLKISRVEAEDVGVYYCAQNLELPYTFGGGTKVEIK
notes: also called cx3490
B3: cx3314 (B7H3-targeting constrained CD3 engager, B7H3 scFv) (bispecific antibody)
chain 1: not shown
chain 2: DKTHTCPPCPAPELLGGPSVFLFPPKPKDTLMISRTPEVTCVVVDVSHEDPEVKFNWYVDGVEVHNAKTKPREEQYNSTYRVVSVLTVLHQDWLNGKEYKCKVSNKALPAPIEKTISKAKGQPREPQVYTLPPCRDELTKNQVSLWCLVKGFYPSDIAVEWESNGQPENNYKTTPPVLDSDGSFFLYSKLTVDKSRWQQGNVFSCSVMHEALHNHYTQKSLSLSPTGGSGGGGIEPDIGGSGGSEVQLVESGGGLVQPGGSLRLSCAASGFTFNTYAMNWVRQAPGKCLEWVARIRSKYNNYATYYADSVKGRFTISRDDAKNTLYLQMSSLRAEDTAVYYCVRHGNFGNSYVSWFAYWGQGTLVTVKP
scFv: EVQLVESGGGLVQPGGSLRLSCAASGFTFSSFGMHWVRQAPGKGLEWVAYISSDSSAIYYADTVKGRFTISRDNAKNSLYLQMNSLRDEDTAVYYCGRGRENIYYGSRLDYWGQGTTVTVSSSGGGGSGGGGSGGGGSDIQLTQSPSFLSASVGDRVTITCKASQNVDTNVAWYQQKPGKAPKALIYSASYRYSGVPSRFSGSGSGTDFTLTISSLQPEDFATYYCQQYNNYPFTFGQGTKLEIK
notes: also called cx3314 scFv
B4: cx3313 (B7H3-targeting constrained CD3 engager, B7H3 Fab) (bispecific antibody)
chain 1: not shown
chain 2: DKTHTCPPCPAPELLGGPSVFLFPPKPKDTLMISRTPEVTCVVVDVSHEDPEVKFNWYVDGVEVHNAKTKPREEQYNSTYRVVSVLTVLHQDWLNGKEYKCKVSNKALPAPIEKTISKAKGQPREPQVYTLPPCRDELTKNQVSLWCLVKGFYPSDIAVEWESNGQPENNYKTTPPVLDSDGSFFLYSKLTVDKSRWQQGNVFSCSVMHEALHNHYTQKSLSLSPTGGSGGGGIEPDIGGSGGSEVQLVESGGGLVQPGGSLRLSCAASGFTFNTYAMNWVRQAPGKCLEWVARIRSKYNNYATYYADSVKGRFTISRDDAKNTLYLQMSSLRAEDTAVYYCVRHGNFGNSYVSWFAYWGQGTLVTVKP
heavy: EVQLVESGGGLVQPGGSLRLSCAASGFTFSSFGMHWVRQAPGKGLEWVAYISSDSSAIYYADTVKGRFTISRDNAKNSLYLQMNSLRDEDTAVYYCGRGRENIYYGSRLDYWGQGTTVTVSSASTKGPSVFPLAPSSKSTSGGTAALGCLVKDYFPEPVTVSWNSGALTSGVHTFPAVLQSSGLYSLSSVVTVPSSSLGTQTYICNVNHKPSNTKVDKKVEPKSC
light: DIQLTQSPSFLSASVGDRVTITCKASQNVDTNVAWYQQKPGKAPKALIYSASYRYSGVPSRFSGSGSGTDFTLTISSLQPEDFATYYCQQYNNYPFTFGQGTKLEIKRTVAAPSVFIFPPSDEQLKSGTASVVCLLNNFYPREAKVQWKVDNALQSGNSQESVTEQDSKDSTYSLSSTLTLSKADYEKHKVYACEVTHQGLSSPVTKSFNRGEC
notes: also called cx3313 FAB

Columns and labels:
[1] = target: T1, CD3 on the surface of primary human T cells (human, UniProt P07766 23-207); assay: flow cytometry on primary human T cells
T1 construct: whole, on cells; CD3 is a multi-chain complex; also called CD3ε
T1 sequence (P07766 23-207): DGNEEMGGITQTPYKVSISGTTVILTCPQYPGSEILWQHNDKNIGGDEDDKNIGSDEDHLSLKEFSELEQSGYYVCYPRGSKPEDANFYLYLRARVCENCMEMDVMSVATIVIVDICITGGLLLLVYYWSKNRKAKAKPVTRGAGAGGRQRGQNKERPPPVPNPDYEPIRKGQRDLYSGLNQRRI

[2] = target: T2, B7H3 on A375 cells (UniProt Q5ZPR3 29-534, limits assumed); assay: flow cytometry on A375 cells
T2 construct: whole, on cells; also called BH73
T2 sequence (looked up): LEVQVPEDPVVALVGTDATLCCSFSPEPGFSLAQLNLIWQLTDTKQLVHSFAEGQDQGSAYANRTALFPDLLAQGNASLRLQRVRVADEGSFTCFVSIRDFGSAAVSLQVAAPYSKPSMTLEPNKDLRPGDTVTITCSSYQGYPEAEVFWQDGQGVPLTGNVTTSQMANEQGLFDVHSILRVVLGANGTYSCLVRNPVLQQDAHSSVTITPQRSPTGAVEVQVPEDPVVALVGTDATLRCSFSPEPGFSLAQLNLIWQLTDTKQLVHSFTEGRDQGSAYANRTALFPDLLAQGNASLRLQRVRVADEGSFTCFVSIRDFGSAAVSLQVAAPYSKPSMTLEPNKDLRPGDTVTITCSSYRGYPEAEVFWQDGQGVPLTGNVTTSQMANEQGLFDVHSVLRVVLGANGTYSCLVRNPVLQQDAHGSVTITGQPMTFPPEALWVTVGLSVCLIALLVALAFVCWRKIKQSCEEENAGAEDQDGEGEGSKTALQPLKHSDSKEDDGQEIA

[3] = target: T1, CD3 on the surface of primary human T …; assay: flow cytometry on primary human T cells (FIGS. 14C and 14D)

Binder | binding result [1] | binding result [2] | binding result [3]
B1 | binds | binds | 
B2 | no binding (tested: 100 nM) |  | 
B3 |  |  | no binding
B4 |  |  | no binding
